Assay results reported in the supplement of paper PMC10065799, “High-throughput profiling of sequence recognition by tyrosine kinases and SH2 domains using bacterial peptide display” (eLife, 2023).

Test system: c-Src
Test: phosphorylation enrichment, bacterial display (enrichment ratio); higher = better substrate or ligand; peptides without Tyr show the background
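Also: 11-residue human phosphosite peptides and single-mutation variants displayed on the E. coli surface, counted by deep sequencing, each peptide's frequency after selection divided by its frequency in the unselected input library; frequency after pTyr selection over input frequency; kinase dosed for 20-30% of maximal phosphorylation in three min.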

Row | Sequence | phosphorylation enrichment
1 | PPGRSYSPFDF [TNS1_Y793_YF] | 0.497
2 | CTTIHYNFICN [TP53_Y234_M237I_YF] | 0.595
3 | INSLKYAFNVS [EIF2B5_Y583_I587V_YF] | 0.464
4 | PFDAEYGGGGG [AKR1B10_Y316_N313D] | 0.918
5 | QHVPDYRQNVF [PCDHGA1_Y890_YF] | 0.572
6 | DFFDLYGGEKF [PTPN11_Y66_YF] | 2.79
7 | VGTKRYMALEV [ACVRL1_Y375_P378L] | 0.486
8 | NLFIEYPTGSG [IRF2BPL_Y423_K418N] | 0.56
9 | MPIPMYDGSQA [CARMIL1_Y637_A639G] | 0.44
10 | AIFWRYSKFFD [SH3PXD2B_Y45_R43W_YF] | 0.326
11 | RGERPYGGGGG [FUS_Y526_R522G] | 0.415
12 | LSVEIHDRREF [ITGB7_Y753_Y753H_YF] | 0.795
13 | NRDNTYNRVSE [FGA_Y127] | 0.405
14 | EGQKIYIDDNN [PIP4K2A_Y246] | 0.467
15 | GGKYSYLKVGH [GRM3_Y480] | 0.4
16 | PTATSYNPNLA [GABRA1_Y375_T376N] | 1.43
17 | RAILLYEFVGK [NATD1_Y45_V42I_YF] | 12.3

Row | Sequence | phosphorylation enrichment
18 | DAASNYARGHF [TUBA3E_Y103_YF] | 0.394
19 | RKTAKYLLKGE [CDH5_Y82_N79T] | 0.535
20 | FVSLIYTNFEA [GSTP1_Y109_I105V_YF] | 5.94
21 | AKFPFYEKNKK [FOXL2_Y91] | 0.415
22 | FYRNVYHLASV [RBL1_Y796_K794N] | 1
23 | EWLRRHLENGK [HLA-A_Y195_Y195H] | 0.331
24 | SNMPSYSGHFT [GRIN2A_Y1224_T1223S] | 0.463
25 | AAETTYDKILK [GDNF_Y156] | 0.501
26 | STTSDYQWDVS [MTDH_Y364] | 0.407
27 | CTTIHYDYMCN [TP53_Y234_N235D] | 0.675
28 | LQTFRYHGHSM [PDHA1_Y289_YF] | 0.761
29 | TSGVVYKARNK [CDK2_Y19_Y15S] | 0.516
30 | ADKAAYLQSMN [MYH2_Y389_L393M] | 0.459
31 | SVTCTYSPALI [TP53_Y126_N131I] | 0.817
32 | VGTKRYMAPDV [ACVRL1_Y375_E379D] | 0.293
33 | YDCGMYSHLQG [LGR4_Y848] | 3.69

Test system: c-Abl (mouse)
Test: as above

Row | Sequence | phosphorylation enrichment
34 | PPGRSYSPFDF [TNS1_Y793_YF] | 0.602
35 | CTTIHYNFICN [TP53_Y234_M237I_YF] | 0.787
36 | INSLKYAFNVS [EIF2B5_Y583_I587V_YF] | 0.593
37 | PFDAEYGGGGG [AKR1B10_Y316_N313D] | 1.31
38 | QHVPDYRQNVF [PCDHGA1_Y890_YF] | 0.798
39 | DFFDLYGGEKF [PTPN11_Y66_YF] | 0.967
40 | VGTKRYMALEV [ACVRL1_Y375_P378L] | 0.709
41 | NLFIEYPTGSG [IRF2BPL_Y423_K418N] | 0.95
42 | MPIPMYDGSQA [CARMIL1_Y637_A639G] | 0.639
43 | AIFWRYSKFFD [SH3PXD2B_Y45_R43W_YF] | 0.959
44 | RGERPYGGGGG [FUS_Y526_R522G] | 0.397
45 | LSVEIHDRREF [ITGB7_Y753_Y753H_YF] | 0.86
46 | NRDNTYNRVSE [FGA_Y127] | 0.762
47 | EGQKIYIDDNN [PIP4K2A_Y246] | 0.74
48 | GGKYSYLKVGH [GRM3_Y480] | 0.666
49 | PTATSYNPNLA [GABRA1_Y375_T376N] | 1.57
50 | RAILLYEFVGK [NATD1_Y45_V42I_YF] | 2.52

Row | Sequence | phosphorylation enrichment
51 | DAASNYARGHF [TUBA3E_Y103_YF] | 0.537
52 | RKTAKYLLKGE [CDH5_Y82_N79T] | 1.1
53 | FVSLIYTNFEA [GSTP1_Y109_I105V_YF] | 2.22
54 | AKFPFYEKNKK [FOXL2_Y91] | 0.545
55 | FYRNVYHLASV [RBL1_Y796_K794N] | 0.429
56 | EWLRRHLENGK [HLA-A_Y195_Y195H] | 0.57
57 | SNMPSYSGHFT [GRIN2A_Y1224_T1223S] | 0.444
58 | AAETTYDKILK [GDNF_Y156] | 0.521
59 | STTSDYQWDVS [MTDH_Y364] | 0.782
60 | CTTIHYDYMCN [TP53_Y234_N235D] | 0.708
61 | LQTFRYHGHSM [PDHA1_Y289_YF] | 0.775
62 | TSGVVYKARNK [CDK2_Y19_Y15S] | 0.51
63 | ADKAAYLQSMN [MYH2_Y389_L393M] | 0.591
64 | SVTCTYSPALI [TP53_Y126_N131I] | 1.13
65 | VGTKRYMAPDV [ACVRL1_Y375_E379D] | 0.494
66 | YDCGMYSHLQG [LGR4_Y848] | 2.38

Biological target: FGFR1 (UniProt P11362)
Sequence (P11362 whole entry, looked up): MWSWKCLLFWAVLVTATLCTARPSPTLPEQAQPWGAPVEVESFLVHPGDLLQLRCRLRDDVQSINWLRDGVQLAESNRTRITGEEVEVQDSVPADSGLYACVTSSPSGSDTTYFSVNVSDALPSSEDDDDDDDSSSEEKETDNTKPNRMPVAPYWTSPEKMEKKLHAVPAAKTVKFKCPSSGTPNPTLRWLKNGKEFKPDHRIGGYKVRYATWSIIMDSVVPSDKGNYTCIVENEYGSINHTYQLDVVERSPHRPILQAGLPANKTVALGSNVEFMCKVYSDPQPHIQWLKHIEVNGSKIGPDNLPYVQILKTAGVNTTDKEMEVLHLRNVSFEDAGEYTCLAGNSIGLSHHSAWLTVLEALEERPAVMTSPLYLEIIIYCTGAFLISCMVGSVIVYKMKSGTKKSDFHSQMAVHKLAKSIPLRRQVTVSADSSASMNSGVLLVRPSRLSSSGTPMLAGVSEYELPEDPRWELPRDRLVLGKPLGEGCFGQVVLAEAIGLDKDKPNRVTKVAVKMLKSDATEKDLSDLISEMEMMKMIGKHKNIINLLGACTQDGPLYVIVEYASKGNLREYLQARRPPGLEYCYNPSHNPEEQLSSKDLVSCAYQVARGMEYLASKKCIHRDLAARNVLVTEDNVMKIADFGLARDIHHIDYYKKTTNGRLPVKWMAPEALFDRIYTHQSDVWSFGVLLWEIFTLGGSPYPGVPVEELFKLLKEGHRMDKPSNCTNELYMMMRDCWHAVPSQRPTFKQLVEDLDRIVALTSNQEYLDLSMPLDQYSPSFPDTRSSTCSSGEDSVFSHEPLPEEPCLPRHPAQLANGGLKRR
Test: as above

Row | Sequence | phosphorylation enrichment
67 | PPGRSYSPFDF [TNS1_Y793_YF] | 0.505
68 | CTTIHYNFICN [TP53_Y234_M237I_YF] | 0.554
69 | INSLKYAFNVS [EIF2B5_Y583_I587V_YF] | 0.44
70 | PFDAEYGGGGG [AKR1B10_Y316_N313D] | 1.16
71 | QHVPDYRQNVF [PCDHGA1_Y890_YF] | 0.59
72 | DFFDLYGGEKF [PTPN11_Y66_YF] | 0.523
73 | VGTKRYMALEV [ACVRL1_Y375_P378L] | 0.472
74 | NLFIEYPTGSG [IRF2BPL_Y423_K418N] | 0.582
75 | MPIPMYDGSQA [CARMIL1_Y637_A639G] | 0.434
76 | AIFWRYSKFFD [SH3PXD2B_Y45_R43W_YF] | 0.445
77 | RGERPYGGGGG [FUS_Y526_R522G] | 0.419
78 | LSVEIHDRREF [ITGB7_Y753_Y753H_YF] | 0.87
79 | NRDNTYNRVSE [FGA_Y127] | 0.38
80 | EGQKIYIDDNN [PIP4K2A_Y246] | 0.584
81 | GGKYSYLKVGH [GRM3_Y480] | 0.404
82 | PTATSYNPNLA [GABRA1_Y375_T376N] | 0.864
83 | RAILLYEFVGK [NATD1_Y45_V42I_YF] | 4.88

Row | Sequence | phosphorylation enrichment
84 | DAASNYARGHF [TUBA3E_Y103_YF] | 0.41
85 | RKTAKYLLKGE [CDH5_Y82_N79T] | 1.04
86 | FVSLIYTNFEA [GSTP1_Y109_I105V_YF] | 0.962
87 | AKFPFYEKNKK [FOXL2_Y91] | 0.441
88 | FYRNVYHLASV [RBL1_Y796_K794N] | 0.464
89 | EWLRRHLENGK [HLA-A_Y195_Y195H] | 0.429
90 | SNMPSYSGHFT [GRIN2A_Y1224_T1223S] | 0.328
91 | AAETTYDKILK [GDNF_Y156] | 0.467
92 | STTSDYQWDVS [MTDH_Y364] | 0.659
93 | CTTIHYDYMCN [TP53_Y234_N235D] | 0.687
94 | LQTFRYHGHSM [PDHA1_Y289_YF] | 0.68
95 | TSGVVYKARNK [CDK2_Y19_Y15S] | 0.354
96 | ADKAAYLQSMN [MYH2_Y389_L393M] | 0.47
97 | SVTCTYSPALI [TP53_Y126_N131I] | 0.534
98 | VGTKRYMAPDV [ACVRL1_Y375_E379D] | 0.296
99 | YDCGMYSHLQG [LGR4_Y848] | 1.04

Test system: AncSZ
Test: as above

Row | Sequence | phosphorylation enrichment
100 | PPGRSYSPFDF [TNS1_Y793_YF] | 0.824
101 | CTTIHYNFICN [TP53_Y234_M237I_YF] | 0.895
102 | INSLKYAFNVS [EIF2B5_Y583_I587V_YF] | 0.77
103 | PFDAEYGGGGG [AKR1B10_Y316_N313D] | 1.81
104 | QHVPDYRQNVF [PCDHGA1_Y890_YF] | 0.889
105 | DFFDLYGGEKF [PTPN11_Y66_YF] | 0.912
106 | VGTKRYMALEV [ACVRL1_Y375_P378L] | 0.691
107 | NLFIEYPTGSG [IRF2BPL_Y423_K418N] | 1.14
108 | MPIPMYDGSQA [CARMIL1_Y637_A639G] | 0.623
109 | AIFWRYSKFFD [SH3PXD2B_Y45_R43W_YF] | 0.839
110 | RGERPYGGGGG [FUS_Y526_R522G] | 0.487
111 | LSVEIHDRREF [ITGB7_Y753_Y753H_YF] | 1.63
112 | NRDNTYNRVSE [FGA_Y127] | 0.603
113 | EGQKIYIDDNN [PIP4K2A_Y246] | 1.04
114 | GGKYSYLKVGH [GRM3_Y480] | 0.678
115 | PTATSYNPNLA [GABRA1_Y375_T376N] | 1.39
116 | RAILLYEFVGK [NATD1_Y45_V42I_YF] | 4.95

Row | Sequence | phosphorylation enrichment
117 | DAASNYARGHF [TUBA3E_Y103_YF] | 0.503
118 | RKTAKYLLKGE [CDH5_Y82_N79T] | 0.71
119 | FVSLIYTNFEA [GSTP1_Y109_I105V_YF] | 1.78
120 | AKFPFYEKNKK [FOXL2_Y91] | 0.589
121 | FYRNVYHLASV [RBL1_Y796_K794N] | 0.728
122 | EWLRRHLENGK [HLA-A_Y195_Y195H] | 0.578
123 | SNMPSYSGHFT [GRIN2A_Y1224_T1223S] | 0.476
124 | AAETTYDKILK [GDNF_Y156] | 0.886
125 | STTSDYQWDVS [MTDH_Y364] | 1.23
126 | CTTIHYDYMCN [TP53_Y234_N235D] | 1.31
127 | LQTFRYHGHSM [PDHA1_Y289_YF] | 0.664
128 | TSGVVYKARNK [CDK2_Y19_Y15S] | 0.53
129 | ADKAAYLQSMN [MYH2_Y389_L393M] | 0.499
130 | SVTCTYSPALI [TP53_Y126_N131I] | 1.64
131 | VGTKRYMAPDV [ACVRL1_Y375_E379D] | 0.424
132 | YDCGMYSHLQG [LGR4_Y848] | 1.47
